# Earlier results, collected in article PMC10404613.
# Target: UBC9 (Homo sapiens) (UniProt P63279)
# UniProt P63279, sequence (P63279 2-158): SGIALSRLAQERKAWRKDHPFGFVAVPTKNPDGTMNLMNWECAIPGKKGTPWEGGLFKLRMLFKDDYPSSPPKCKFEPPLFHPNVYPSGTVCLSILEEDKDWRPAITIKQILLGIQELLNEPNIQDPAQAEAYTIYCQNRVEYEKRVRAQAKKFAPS
substance,measurement,value
SUMO1 (from UniProt P63165),Kd,0.1 µM
